Publication PMC12990809

Key:
Test in all cases: pulldown
Settings in all cases: 20 nM protein, 1.5 uM RNA pool; 20 mM HEPES pH 7.8, 70 mM KCl, 10 mM NaCl, 10% glycerol, 2 mM DTT, 0.1 ug/uL BSA; 30 min, 4 C
[1] = molecular target: T1, LmjF.29.1360 (Leishmania major) (UniProt E9ADZ5)
T1 sequence: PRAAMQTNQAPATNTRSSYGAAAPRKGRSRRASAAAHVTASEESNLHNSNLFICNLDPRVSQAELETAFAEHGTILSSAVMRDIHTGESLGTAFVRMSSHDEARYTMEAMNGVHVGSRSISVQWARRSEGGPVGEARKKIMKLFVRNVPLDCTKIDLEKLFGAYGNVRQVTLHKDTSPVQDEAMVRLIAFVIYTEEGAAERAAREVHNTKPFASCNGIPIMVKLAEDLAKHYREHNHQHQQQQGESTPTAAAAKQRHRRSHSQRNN

[2] = molecular target: T2, BATDEDRAFT_13807 (Batrachochytrium dendrobatidis) (UniProt F4NYD0)
T2 sequence: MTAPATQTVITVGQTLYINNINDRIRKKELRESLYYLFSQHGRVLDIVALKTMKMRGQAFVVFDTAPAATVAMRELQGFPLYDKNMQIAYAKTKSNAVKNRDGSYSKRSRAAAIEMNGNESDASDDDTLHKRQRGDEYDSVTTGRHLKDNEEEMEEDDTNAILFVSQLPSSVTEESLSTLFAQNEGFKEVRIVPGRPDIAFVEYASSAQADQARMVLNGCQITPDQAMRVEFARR

[3] = molecular target: T3, LmjF.33.1450 (Leishmania major) (UniProt Q4Q442)
T3 sequence: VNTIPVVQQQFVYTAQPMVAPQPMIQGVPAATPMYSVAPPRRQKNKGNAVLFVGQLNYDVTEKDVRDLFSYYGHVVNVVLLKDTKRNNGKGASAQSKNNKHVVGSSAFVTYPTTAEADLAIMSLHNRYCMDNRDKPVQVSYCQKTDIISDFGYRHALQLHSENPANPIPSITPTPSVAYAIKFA

[4] = molecular target: T4, ENSMODG00000011916 (Monodelphis domestica) (UniProt F7E028)
T4 sequence: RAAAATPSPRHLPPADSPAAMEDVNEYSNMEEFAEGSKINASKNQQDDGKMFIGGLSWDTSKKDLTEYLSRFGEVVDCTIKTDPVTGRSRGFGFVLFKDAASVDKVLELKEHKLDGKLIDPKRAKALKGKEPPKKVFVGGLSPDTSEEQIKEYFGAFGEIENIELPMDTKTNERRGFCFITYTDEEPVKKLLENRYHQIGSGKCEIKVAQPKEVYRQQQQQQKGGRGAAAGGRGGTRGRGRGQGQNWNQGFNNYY

DDX53 (Homo sapiens) = DDX53 (Homo sapiens) (UniProt Q86TM3)
[5] = molecular target: T5, Tb927.3.3960 (Trypanosoma brucei) (UniProt Q57WD2)
T5 sequence: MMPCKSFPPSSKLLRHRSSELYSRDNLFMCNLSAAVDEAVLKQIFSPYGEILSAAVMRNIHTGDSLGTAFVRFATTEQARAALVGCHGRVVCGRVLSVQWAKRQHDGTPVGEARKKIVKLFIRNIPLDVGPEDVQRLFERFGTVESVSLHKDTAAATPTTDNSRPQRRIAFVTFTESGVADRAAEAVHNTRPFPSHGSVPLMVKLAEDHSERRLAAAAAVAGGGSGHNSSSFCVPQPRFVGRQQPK

[6] = molecular target: T6, Tb11.03.0550 L37P (Trypanosoma brucei) (UniProt Q387J8)
T6 sequence: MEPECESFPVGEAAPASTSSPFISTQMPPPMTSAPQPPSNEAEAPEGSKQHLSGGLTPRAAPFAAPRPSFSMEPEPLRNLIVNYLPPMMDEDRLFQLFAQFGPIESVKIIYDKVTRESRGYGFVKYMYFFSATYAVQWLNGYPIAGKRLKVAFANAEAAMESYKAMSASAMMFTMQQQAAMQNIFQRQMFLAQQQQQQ

mex3c (Danio rerio) = molecular target: T7, mex3c (Danio rerio) (UniProt A0A8M1REM5)
T7 sequence: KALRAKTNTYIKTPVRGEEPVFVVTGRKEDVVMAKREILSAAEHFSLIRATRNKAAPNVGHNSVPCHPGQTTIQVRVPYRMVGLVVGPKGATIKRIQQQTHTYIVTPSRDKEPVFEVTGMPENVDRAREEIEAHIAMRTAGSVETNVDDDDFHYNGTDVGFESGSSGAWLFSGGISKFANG

[7] = molecular target: T8, LmjF.29.1340 (Leishmania major) (UniProt E9ADZ3)
T8 sequence: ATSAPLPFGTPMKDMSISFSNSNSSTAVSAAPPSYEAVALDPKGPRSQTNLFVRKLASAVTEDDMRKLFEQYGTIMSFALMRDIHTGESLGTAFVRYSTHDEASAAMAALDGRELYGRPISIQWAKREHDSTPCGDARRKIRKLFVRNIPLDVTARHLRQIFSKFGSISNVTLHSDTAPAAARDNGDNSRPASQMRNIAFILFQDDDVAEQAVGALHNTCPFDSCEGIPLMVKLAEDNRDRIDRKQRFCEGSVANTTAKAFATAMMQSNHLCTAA

Sequence of DDX53 (Homo sapiens) (Q86TM3 whole entry): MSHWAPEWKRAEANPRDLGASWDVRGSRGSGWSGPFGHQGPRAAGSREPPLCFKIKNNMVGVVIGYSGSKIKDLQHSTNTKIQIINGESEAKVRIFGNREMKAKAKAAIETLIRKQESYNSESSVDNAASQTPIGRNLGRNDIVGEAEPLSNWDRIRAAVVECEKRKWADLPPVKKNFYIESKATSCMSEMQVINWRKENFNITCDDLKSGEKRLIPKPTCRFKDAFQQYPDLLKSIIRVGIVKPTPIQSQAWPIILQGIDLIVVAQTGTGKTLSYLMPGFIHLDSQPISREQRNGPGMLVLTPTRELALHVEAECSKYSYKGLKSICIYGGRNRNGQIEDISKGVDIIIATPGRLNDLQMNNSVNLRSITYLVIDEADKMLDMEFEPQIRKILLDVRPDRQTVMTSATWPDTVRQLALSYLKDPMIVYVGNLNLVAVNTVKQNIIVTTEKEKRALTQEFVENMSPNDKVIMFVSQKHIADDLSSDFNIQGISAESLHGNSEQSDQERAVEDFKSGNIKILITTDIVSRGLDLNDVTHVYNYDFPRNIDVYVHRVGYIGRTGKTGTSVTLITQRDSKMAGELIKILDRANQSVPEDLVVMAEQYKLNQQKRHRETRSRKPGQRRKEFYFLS

Substance: UAUAGU [RNAcompete motif RNCMPT00714]
- binding signal (z-score (mean of top ten 7-mers)) [1]: 20.4

Substance: AUNGCAC [RNAcompete motif RNCMPT00739]
- binding signal (z-score (mean of top ten 7-mers)) [2]: 7.82

Substance: UUGCAGU [RNAcompete motif RNCMPT00717]
- binding signal (z-score (mean of top ten 7-mers)) [3]: 21.8

Substance: AGAUAAA [RNAcompete motif RNCMPT00707]
- binding signal (z-score (mean of top ten 7-mers)) [4]: 8.36

Substance: AGAAUAA [RNAcompete motif RNCMPT00743]
- binding signal (z-score (mean of top ten 7-mers)) (DDX53 (Homo sapiens)): 6.26

Substance: CAUUGU [RNAcompete motif RNCMPT00735]
- binding signal (z-score (mean of top ten 7-mers)) [5]: 23

Substance: UUAUUUU [RNAcompete motif RNCMPT00749]
- binding signal (z-score (mean of top ten 7-mers)) [6]: 13.9

Substance: AGAGUA [RNAcompete motif RNCMPT00727]
- binding signal (z-score (mean of top ten 7-mers)) (mex3c (Danio rerio)): 10.1

Substance: CAUAGU [RNAcompete motif RNCMPT00712]
- binding signal (z-score (mean of top ten 7-mers)) [7]: 16.4
